T1: FcγRIIb, extracellular domain with C-terminal His tag (human, UniProt P31994 43-217)
T1 construct: extracellular domain; also called 2b; FcgRIIb; not shown: His tag at the C terminus
T1 sequence (looked up): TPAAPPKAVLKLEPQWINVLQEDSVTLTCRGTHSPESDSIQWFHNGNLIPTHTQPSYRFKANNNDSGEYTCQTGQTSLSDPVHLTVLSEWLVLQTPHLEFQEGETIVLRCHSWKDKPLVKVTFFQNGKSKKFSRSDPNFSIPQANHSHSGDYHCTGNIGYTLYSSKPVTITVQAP

T2: FcγRIIa H (FcgRIIa type H, His at position 131), extracellular domain with C-terminal His tag (human, UniProt P12318 34-217)
T2 construct: extracellular domain; also called 2aH; FcgRIIa H; not shown: His tag at the C terminus
T2 sequence (looked up): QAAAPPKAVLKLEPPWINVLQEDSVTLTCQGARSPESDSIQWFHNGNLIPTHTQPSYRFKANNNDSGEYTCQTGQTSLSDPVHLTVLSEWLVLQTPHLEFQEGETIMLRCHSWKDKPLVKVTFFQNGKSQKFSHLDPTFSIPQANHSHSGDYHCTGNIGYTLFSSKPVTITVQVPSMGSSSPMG

T3: FcγRIIa H (human, UniProt P12318 34-217)
T3 construct: extracellular domain; also called FcγRIIa type H; 2aH; not shown: His tag at the C terminus
T3 sequence (looked up): T2 sequence (looked up)

T4: FcγRIIb (human, UniProt P31994 43-217)
T4 construct: extracellular domain; also called 2b; not shown: His tag at the C terminus
T4 sequence (looked up): T1 sequence (looked up)

B1: GpH7-A5/GpH7-B3 variant N325_07I/GpL16-k0 (antibody, human IgG1, kappa)
heavy 1: not shown
heavy 2: not shown
light: DIVMTQSPLSLPVTPGEPASISCQASESLVHSNRNTYLHWYLQKPGQSPQLLIYKVSNRFSGVPDRFSGSGSGTDFTLKISRVEAEDVGVYYCSQNTHVPPTFGQGTKVEIERTVAAPSVFIFPPSDEQLKSGTASVVCLLNNFYPREAKVQWKVDNALQSGNSQESVTEQDSKDSTYSLSSTLTLSKADYEKHKVYACEVTHQGLSSPVTKSFNRGEC
notes: He Ab; alteration in one H chain only; also called He Ab
B2: GpH7-A5/GpH7-B3 variant L328_19Q/GpL16-k0 (antibody, human IgG1, kappa)
heavy 1: not shown
heavy 2: not shown
light: B1 light
notes: as for B1
B3: GpH7-A5/GpH7-B3 variant K334_12R/GpL16-k0 (antibody, human IgG1, kappa)
heavy 1: not shown
heavy 2: not shown
light: B1 light
notes: as for B1
B4: GpH7-A5/GpH7-B3 variant L328_04F/GpL16-k0 (antibody, human IgG1, kappa)
heavy 1: not shown
heavy 2: not shown
light: B1 light
notes: as for B1
B5: GpH7-A5/GpH7-B3 variant L328_09D/GpL16-k0 (antibody, human IgG1, kappa)
heavy 1: not shown
heavy 2: not shown
light: B1 light
notes: as for B1
B6: GpH7-A5/GpH7-B3 variant P331_20W/GpL16-k0 (antibody, human IgG1, kappa)
heavy 1: not shown
heavy 2: not shown
light: B1 light
notes: as for B1
B7: GpH7-A5/GpH7-B3 variant P331_07I/GpL16-k0 (antibody, human IgG1, kappa)
heavy 1: not shown
heavy 2: not shown
light: B1 light
notes: as for B1
B8: GpH7-A5/GpH7-B3 variant L328_07I/GpL16-k0 (antibody, human IgG1, kappa)
heavy 1: not shown
heavy 2: not shown
light: B1 light
notes: as for B1
B9: GpH7-A5/GpH7-B3 variant S337_18N/GpL16-k0 (antibody, human IgG1, kappa)
heavy 1: not shown
heavy 2: not shown
light: B1 light
notes: as for B1
B10: GpH7-A5/GpH7-B3 variant N325_08L/GpL16-k0 (antibody, human IgG1, kappa)
heavy 1: not shown
heavy 2: not shown
light: B1 light
notes: as for B1
B11: GpH7-A5/GpH7-B3 variant P331_16H/GpL16-k0 (antibody, human IgG1, kappa)
heavy 1: not shown
heavy 2: not shown
light: B1 light
notes: as for B1
B12: GpH7-A5/GpH7-B3 variant N325_01G/GpL16-k0 (antibody, human IgG1, kappa)
heavy 1: not shown
heavy 2: not shown
light: B1 light
notes: as for B1
B13: GpH7-A5/GpH7-B3 variant N325_03V/GpL16-k0 (antibody, human IgG1, kappa)
heavy 1: not shown
heavy 2: not shown
light: B1 light
notes: as for B1
B14: GpH7-A5/GpH7-B3 variant P331_15Y/GpL16-k0 (antibody, human IgG1, kappa)
heavy 1: not shown
heavy 2: not shown
light: B1 light
notes: as for B1
B15: GpH7-A5/GpH7-B3 variant N325_04F/GpL16-k0 (antibody, human IgG1, kappa)
heavy 1: not shown
heavy 2: not shown
light: B1 light
notes: as for B1
B16: GpH7-A5/GpH7-B3 variant N325_06M/GpL16-k0 (antibody, human IgG1, kappa)
heavy 1: not shown
heavy 2: not shown
light: B1 light
notes: as for B1
B17: GpH7-A5/GpH7-B3 variant N325_09D/GpL16-k0 (antibody, human IgG1, kappa)
heavy 1: not shown
heavy 2: not shown
light: B1 light
notes: as for B1
B18: GpH7-A5/GpH7-B3 variant L328_10E/GpL16-k0 (antibody, human IgG1, kappa)
heavy 1: not shown
heavy 2: not shown
light: B1 light
notes: as for B1
B19: GpH7-A5/GpH7-B3 variant P331_04F/GpL16-k0 (antibody, human IgG1, kappa)
heavy 1: not shown
heavy 2: not shown
light: B1 light
notes: as for B1
B20: GpH7-A5/GpH7-B3 variant P331_06M/GpL16-k0 (antibody, human IgG1, kappa)
heavy 1: not shown
heavy 2: not shown
light: B1 light
notes: as for B1
B21: GpH7-A5/GpH7-B3 variant P331_10E/GpL16-k0 (antibody, human IgG1, kappa)
heavy 1: not shown
heavy 2: not shown
light: B1 light
notes: as for B1
B22: GpH7-A5/GpH7-B3 variant P331_03V/GpL16-k0 (antibody, human IgG1, kappa)
heavy 1: not shown
heavy 2: not shown
light: B1 light
notes: as for B1
B23: GpH7-A5/GpH7-B3 variant S337_15Y/GpL16-k0 (antibody, human IgG1, kappa)
heavy 1: not shown
heavy 2: not shown
light: B1 light
notes: as for B1
B24: GpH7-A5/GpH7-B3 variant N325_13S/GpL16-k0 (antibody, human IgG1, kappa)
heavy 1: not shown
heavy 2: not shown
light: B1 light
notes: as for B1
B25: GpH7-A5/GpH7-B3 variant K334_18N/GpL16-k0 (antibody, human IgG1, kappa)
heavy 1: not shown
heavy 2: not shown
light: B1 light
notes: as for B1
B26: GpH7-A5/GpH7-B3 variant L328_03V/GpL16-k0 (antibody, human IgG1, kappa)
heavy 1: not shown
heavy 2: not shown
light: B1 light
notes: as for B1
B27: GpH7-A5/GpH7-B3 variant N325_20W/GpL16-k0 (antibody, human IgG1, kappa)
heavy 1: not shown
heavy 2: not shown
light: B1 light
notes: as for B1
B28: GpH7-A5/GpH7-B3 variant L328_15Y/GpL16-k0 (antibody, human IgG1, kappa)
heavy 1: not shown
heavy 2: not shown
light: B1 light
notes: as for B1
B29: GpH7-A5/GpH7-B3 variant K334_20W/GpL16-k0 (antibody, human IgG1, kappa)
heavy 1: not shown
heavy 2: not shown
light: B1 light
notes: as for B1
B30: GpH7-A5/GpH7-B3 variant A330_11K/GpL16-k0 (antibody, human IgG1, kappa)
heavy 1: not shown
heavy 2: not shown
light: B1 light
notes: Heterodimerized IgG1; mutation in the GpH7-B3 chain only; also called He Ab
B31: GpH7-A5/GpH7-B3 variant E333_04F/GpL16-k0 (antibody, human IgG1, kappa)
heavy 1: not shown
heavy 2: not shown
light: B1 light
notes: as for B30
B32: GpH7-A5/GpH7-B3 variant D270_10E/GpL16-k0 (antibody, human IgG1, kappa)
heavy 1: not shown
heavy 2: not shown
light: B1 light
notes: as for B30
B33: GpH7-A5/GpH7-B3 variant E333_13S/GpL16-k0 (antibody, human IgG1, kappa)
heavy 1: not shown
heavy 2: not shown
light: B1 light
notes: as for B30
B34: GpH7-A5/GpH7-B3 variant A330_19Q/GpL16-k0 (antibody, human IgG1, kappa)
heavy 1: not shown
heavy 2: not shown
light: B1 light
notes: as for B30
B35: GpH7-A5/GpH7-B3 variant E333_09D/GpL16-k0 (antibody, human IgG1, kappa)
heavy 1: not shown
heavy 2: not shown
light: B1 light
notes: as for B30
B36: GpH7-A5/GpH7-B3 variant A330_16H/GpL16-k0 (antibody, human IgG1, kappa)
heavy 1: not shown
heavy 2: not shown
light: B1 light
notes: as for B30
B37: GpH7-A5/GpH7-B3 variant H268_04F/GpL16-k0 (antibody, human IgG1, kappa)
heavy 1: not shown
heavy 2: not shown
light: B1 light
notes: as for B30
B38: GpH7-A5/GpH7-B3 variant G236_20W/GpL16-k0 (antibody, human IgG1, kappa)
heavy 1: not shown
heavy 2: not shown
light: B1 light
notes: as for B30
B39: GpH7-A5/GpH7-B3 variant E333_14T/GpL16-k0 (antibody, human IgG1, kappa)
heavy 1: not shown
heavy 2: not shown
light: B1 light
notes: as for B30
B40: GpH7-A5/GpH7-B3 variant A330_12R/GpL16-k0 (antibody, human IgG1, kappa)
heavy 1: not shown
heavy 2: not shown
light: B1 light
notes: as for B30
B41: GpH7-A5/GpH7-B3 variant E333_08L/GpL16-k0 (antibody, human IgG1, kappa)
heavy 1: not shown
heavy 2: not shown
light: B1 light
notes: as for B30

target: T1, FcγRIIb, extracellular domain with …; assay: SPR (Biacore), relative binding, GpH7-A5/GpH7-B3/GpL16-k0 = 100

| He/Con_2b | Binder |
| --- | --- |
| 171 % of control | B1 |
| 105 % of control | B2 |
| 111 % of control | B3 |
| 219 % of control | B4 |
| 199 % of control | B5 |
| 111 % of control | B6 |
| 114 % of control | B7 |
| 160 % of control | B8 |
| 103 % of control | B9 |
| 197 % of control | B10 |
| 116 % of control | B11 |
| 101 % of control | B12 |
| 111 % of control | B13 |
| 114 % of control | B14 |
| 143 % of control | B15 |
| 217 % of control | B16 |
| 124 % of control | B17 |
| 172 % of control | B18 |
| 110 % of control | B19 |
| 102 % of control | B20 |
| 116 % of control | B21 |
| 119 % of control | B22 |
| 100 % of control | B23 |
| 177 % of control | B24 |
| 115 % of control | B25 |
| 126 % of control | B26 |
| 169 % of control | B27 |
| 193 % of control | B28 |
| 104 % of control | B29 |

target: T2, FcγRIIa H (FcgRIIa type H, His at …); assay: as above

| He/Con_2aH | Binder |
| --- | --- |
| 38.1 % of control | B1 |
| 86.8 % of control | B2 |
| 99.7 % of control | B3 |
| 71.7 % of control | B4 |
| 58.5 % of control | B5 |
| 82.8 % of control | B6 |
| 77.4 % of control | B7 |
| 93.9 % of control | B8 |
| 99.8 % of control | B9 |
| 52 % of control | B10 |
| 84.5 % of control | B11 |
| 56.8 % of control | B12 |
| 45.2 % of control | B13 |
| 86 % of control | B14 |
| 33.4 % of control | B15 |
| 48.2 % of control | B16 |
| 53.1 % of control | B17 |
| 55.5 % of control | B18 |
| 84.7 % of control | B19 |
| 85.1 % of control | B20 |
| 87.1 % of control | B21 |
| 82.5 % of control | B22 |
| 99.4 % of control | B23 |
| 79.7 % of control | B24 |
| 99.7 % of control | B25 |
| 97.8 % of control | B26 |
| 47.2 % of control | B27 |
| 90 % of control | B28 |
| 97.6 % of control | B29 |

target: T3, FcγRIIa H; assay: SPR (Biacore), antibody captured, FcγR as analyte; binding relative to GpH7-A5/GpH7-B3/GpL16-k0 = 100
Protocol: (§1) The heterodimerized antibodies He Abs in which one of the H chains was introduced with an alteration were assayed for their binding activities to each activating FcγR and inhibitory FcγR according to the method described in Example 4. […] The activating FcγRs in FIGS. 26, 27, 28, and 29 are FcγRIa, FcγRIIa (R), FcγRIIa (H), and FcγRIIIa, respectively.
(§2) Analysis of interaction between objective antibody and the FcγR was carried out using Biacore T100 (GE Healthcare). HBS-EP+ (GE Healthcare) was used as the running buffer, and the measurement temperature was set to 25° C. Chips produced by immobilizing the antigen peptide by the amine coupling method to a Series S Sencor Chip CM5 (GE Healthcare), or alternatively, chips produced by allowing preliminarily biotinylated antigen peptides to interact with and immobilize onto a Series S Sensor Chip SA (certified) (GE Healthcare) were used. Antibodies of interest were captured onto an antigen peptide-immobilized chip, and allowed to interact to each FcγR diluted with running buffer. To regenerate and repeatedly use the chip, the antibodies captured on the chip were washed off by reacting 10 mM glycine-HCl, pH 1.5.

| He/Con_2aH | Binder |
| --- | --- |
| 109 % of control | B30 |
| 102 % of control | B31 |
| 102 % of control | B32 |
| 101 % of control | B33 |
| 102 % of control | B34 |
| 103 % of control | B35 |
| 101 % of control | B36 |
| 111 % of control | B37 |
| 147 % of control | B38 |
| 100 % of control | B39 |
| 108 % of control | B40 |
| 102 % of control | B41 |

target: T4, FcγRIIb; assay: as above
Protocol: as §1, §2

| He/Con_2b | Binder |
| --- | --- |
| 95 % of control | B30 |
| 94.6 % of control | B31 |
| 76.5 % of control | B32 |
| 81.8 % of control | B33 |
| 90.8 % of control | B34 |
| 94.3 % of control | B35 |
| 87.6 % of control | B36 |
| 89.6 % of control | B37 |
| 58.2 % of control | B38 |
| 86.1 % of control | B39 |
| 84.8 % of control | B40 |
| 95 % of control | B41 |
